T1: Tse15 central Rhs domain (residues 335-1395) (Acinetobacter baumannii (strain …, UniProt A0A5K6CSR3 335-1395))
T1 sequence (looked up): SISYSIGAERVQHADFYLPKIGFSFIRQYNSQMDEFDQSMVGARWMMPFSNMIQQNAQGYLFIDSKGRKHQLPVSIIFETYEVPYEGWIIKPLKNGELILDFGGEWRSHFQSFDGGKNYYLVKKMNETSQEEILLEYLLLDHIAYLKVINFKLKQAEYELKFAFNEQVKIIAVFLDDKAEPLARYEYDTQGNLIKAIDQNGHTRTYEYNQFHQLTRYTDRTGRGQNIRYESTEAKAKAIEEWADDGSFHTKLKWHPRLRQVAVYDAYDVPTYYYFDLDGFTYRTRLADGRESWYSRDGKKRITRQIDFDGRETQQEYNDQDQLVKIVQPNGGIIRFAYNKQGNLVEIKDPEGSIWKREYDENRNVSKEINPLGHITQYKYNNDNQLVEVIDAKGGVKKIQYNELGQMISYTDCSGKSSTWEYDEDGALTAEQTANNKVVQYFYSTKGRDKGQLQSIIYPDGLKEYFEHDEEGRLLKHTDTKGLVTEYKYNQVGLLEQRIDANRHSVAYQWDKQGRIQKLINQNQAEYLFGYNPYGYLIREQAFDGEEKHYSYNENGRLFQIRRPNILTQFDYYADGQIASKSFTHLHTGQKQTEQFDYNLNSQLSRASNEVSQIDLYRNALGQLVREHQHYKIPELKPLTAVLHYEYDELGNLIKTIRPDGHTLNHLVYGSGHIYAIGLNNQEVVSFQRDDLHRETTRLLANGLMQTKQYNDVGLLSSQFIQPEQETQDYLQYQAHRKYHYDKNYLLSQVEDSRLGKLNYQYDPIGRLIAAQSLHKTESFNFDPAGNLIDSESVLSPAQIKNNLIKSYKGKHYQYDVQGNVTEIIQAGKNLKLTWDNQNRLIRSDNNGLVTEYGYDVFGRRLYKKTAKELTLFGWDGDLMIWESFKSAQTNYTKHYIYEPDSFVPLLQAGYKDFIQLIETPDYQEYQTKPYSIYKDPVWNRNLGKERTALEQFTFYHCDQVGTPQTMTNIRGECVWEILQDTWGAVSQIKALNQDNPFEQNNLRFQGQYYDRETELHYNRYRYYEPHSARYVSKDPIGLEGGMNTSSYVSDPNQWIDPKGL

B1: Tse15 toxic C-terminal domain (residues 1396-1590) (domain or fragment, UniProt A0A5K6CSR3 1396-1590, looked up)
chain: NSFNYGEMFGIPASAQSGLAYQGQRNYECYAETGELCKIKVPPLFDYVACSGGGLGIGVGFVKNQWTGEYYISGSKDSLLIPVAKSVAQNKQFSAKDLAGASCVGGNIHNIPSYTKTTMTMGEITNEFVSGASVTVGGGAYGAVANVVVPLVSKSSPVKGTWASELGVGTPGFNVGVSGTVSVDTILDAVKPSKK
B2: Tse15 N-terminal clade domain (residue 1-334) (domain or fragment, UniProt A0A5K6CSR3 1-334, looked up)
chain: MAKENTQQKEIKRQPAVELAVFNLNSVTDVADLQMIASQVQLYLQVCGNTTLEQIKSKANITTVANIFALTGSVLDLMLYATDKKTGDAAVQRGALLAANLIGLFSEPNNEAHARMALRPMFGLMAECLYRENGKIKETDIKRLGLHLNAMIAGDLENFLKETQAKLSSLLISATTLGVTILQSMATPATGINAGITTAAGASAEKRDPKLKFTNWAVPLIDLLGKPSQANLTPKIQPNITSRLQQEATQAIAALSQTLQQQANAGQKYTLAWLLQETLKAIQALENKGNASVPINQTGEYERHTKGDTLEFVSLQADALNAPPCEGADSQSGK

Key:
[1] = biological target: B2; experiment: pull-down
[2] = biological target: T1, Tse15 central Rhs domain (residues …); experiment: pull-down
[3] = biological target: T1, Tse15 central Rhs domain (residues …); experiment: SEC

Q: What does the source list for B1?
A: binding result [1]: binds; binding result [2]: binds

Q: Does B2 bind [3]?
A: Result: binds

Source: publication doi:10.1101/2023.11.18.567679 (bioRxiv, 2023)
